Results reported in the supplement of paper PMC10567573.

B1: C22orf31 (parent)
chain: YSLELGKAIKQKLWEALCSQGAIS

Variants of: B1
Assay: protein stability index of a GFP-peptide fusion (GPS, HEK-293T) (PSI 1-6); higher = more stable
Conditions: c terminus: a fixed tail appended
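Also: lentivirally expressed fusions sorted by FACS into six bins by GFP to DsRed ratio, PSI derived from sequencing read proportions per bin multiplied by bin number.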

First: YSLELGKAIKQKRWEALCSQGAIS
Second: YSLELGKARKQKLWEALCSQGAIS
The protein stability index of the first is higher: 2.05 for the first, 1.87 for the second.

Compared with YSLELGKAIKQKLWEARCSQGAIS, YSLELGKAIKQKLWERLCSQGAIS is lower in protein stability index: 2.25 for the first, 2.1 for the second.

Going from YSLELGKAIKQKLWEALCSPGAIS to YSLELGKAIKPKLWEALCSQGAIS, the protein stability index falls from 2.21 to 1.36.

Going from YSLELGKAIKQKLWEALCSQGAMS to YSLELGCAIKQKLWEALCSQGAIS, the protein stability index falls from 2.22 to 1.73.

With YSLELGKAIKQKLCEALCSQGAIS the protein stability index was 1.62.
